Results on one sequence are retold here after patent publication US20190218532.

The data set deals with SpCas9::KQ (nuclease-deficient) KQ insertion (Streptococcus pyogenes) (UniProt Q99ZW2). The data set can be described thus: cell_activity. To be noted: PAM TGG; half the fraction of GFP-positive cells of SpCas9.
UniProt Q99ZW2, sequence (Q99ZW2 whole entry): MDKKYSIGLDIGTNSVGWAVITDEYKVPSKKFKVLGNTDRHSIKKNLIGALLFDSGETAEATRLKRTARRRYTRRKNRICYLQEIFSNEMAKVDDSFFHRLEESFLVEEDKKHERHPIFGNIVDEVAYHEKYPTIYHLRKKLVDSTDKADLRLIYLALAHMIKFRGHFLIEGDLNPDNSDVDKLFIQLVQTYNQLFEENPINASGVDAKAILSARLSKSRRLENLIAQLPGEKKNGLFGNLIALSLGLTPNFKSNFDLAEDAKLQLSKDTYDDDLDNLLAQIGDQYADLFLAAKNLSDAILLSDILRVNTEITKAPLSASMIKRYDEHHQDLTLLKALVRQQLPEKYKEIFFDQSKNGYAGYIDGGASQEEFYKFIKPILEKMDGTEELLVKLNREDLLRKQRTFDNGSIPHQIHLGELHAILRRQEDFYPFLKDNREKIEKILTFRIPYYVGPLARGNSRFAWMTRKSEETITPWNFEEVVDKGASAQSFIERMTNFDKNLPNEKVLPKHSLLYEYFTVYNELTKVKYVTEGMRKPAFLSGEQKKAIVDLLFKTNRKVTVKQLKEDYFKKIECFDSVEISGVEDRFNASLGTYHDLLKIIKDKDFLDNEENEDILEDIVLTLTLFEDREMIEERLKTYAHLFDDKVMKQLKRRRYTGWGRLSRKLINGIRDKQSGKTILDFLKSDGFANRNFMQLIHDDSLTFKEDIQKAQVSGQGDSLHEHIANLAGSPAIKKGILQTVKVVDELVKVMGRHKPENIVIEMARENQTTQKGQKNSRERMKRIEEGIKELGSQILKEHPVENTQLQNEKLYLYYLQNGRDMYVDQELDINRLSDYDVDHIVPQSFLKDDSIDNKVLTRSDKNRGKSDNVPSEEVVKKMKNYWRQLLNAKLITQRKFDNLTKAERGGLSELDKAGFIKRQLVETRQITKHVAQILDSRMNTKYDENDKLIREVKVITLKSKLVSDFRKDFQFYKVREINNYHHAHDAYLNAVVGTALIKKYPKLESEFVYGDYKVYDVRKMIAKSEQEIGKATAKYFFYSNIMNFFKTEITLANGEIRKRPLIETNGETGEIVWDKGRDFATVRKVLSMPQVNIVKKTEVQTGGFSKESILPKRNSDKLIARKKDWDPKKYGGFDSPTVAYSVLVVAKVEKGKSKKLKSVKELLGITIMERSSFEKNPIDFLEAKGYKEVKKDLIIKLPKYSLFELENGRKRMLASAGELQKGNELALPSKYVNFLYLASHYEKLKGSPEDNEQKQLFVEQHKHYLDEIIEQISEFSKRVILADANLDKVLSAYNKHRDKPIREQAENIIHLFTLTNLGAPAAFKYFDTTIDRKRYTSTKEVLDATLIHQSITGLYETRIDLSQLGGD

As for “CGAAAGGUUUUGCACUCGAC / CGAAAGGTTTTGCACTCGACTGG / CCAGTCGAGTGCAAAACCTTTCG”, the binding signal (fraction of SpCas9 GFP-positive cells) is 0.5.
